Measured values from publication PMC10439943, “SCF^RMF mediates degradation of the meiosis-specific recombinase DMC1” (Nature Communications, 2023).

Assays:
Test in all cases: pull-down; 2 µg of each GST-, HIS- or MBP-tagged protein mixed in 50 mM Tris-HCl pH 7.4, 150 mM NaCl, 25 mM imidazole, 0.5% NP-40, 4 °C 4 h; HIS-tagged protein captured on Ni-NTA HIS Bind Resin; western blot
Details in all cases: both partners purified
SUMO-HIS-RMF2 = target: T1, SUMO-HIS-RMF2 (Arabidopsis thaliana, UniProt Q9FGB8 1-355)
T1 construct: RMF2, F-box protein, Arabidopsis thaliana, AGI AT5G36000; CDS cloned into pSUMO (on pET28a); also called AT5G36000; not shown: SUMO, N-terminal, kept; HIS, N-terminal, kept
T1 sequence (looked up): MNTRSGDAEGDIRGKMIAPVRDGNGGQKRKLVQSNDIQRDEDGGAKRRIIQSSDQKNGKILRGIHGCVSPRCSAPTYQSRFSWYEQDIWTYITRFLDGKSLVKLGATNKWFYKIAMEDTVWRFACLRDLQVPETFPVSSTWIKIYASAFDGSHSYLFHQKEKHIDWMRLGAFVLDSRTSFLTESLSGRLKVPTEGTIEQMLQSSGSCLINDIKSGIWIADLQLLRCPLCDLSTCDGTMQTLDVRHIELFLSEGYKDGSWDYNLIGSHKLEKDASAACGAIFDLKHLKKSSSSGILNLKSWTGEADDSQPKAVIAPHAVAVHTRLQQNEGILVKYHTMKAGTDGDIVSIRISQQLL

SUMO-HIS-RMF1 = target: T2, SUMO-HIS-RMF1 (Arabidopsis thaliana, UniProt Q9M365 1-359)
T2 construct: RMF1, F-box protein, Arabidopsis thaliana, AGI AT3G61730; CDS cloned into pSUMO (on pET28a); also called AT3G61730; not shown: SUMO, N-terminal, kept; HIS, N-terminal, kept
T2 sequence (looked up): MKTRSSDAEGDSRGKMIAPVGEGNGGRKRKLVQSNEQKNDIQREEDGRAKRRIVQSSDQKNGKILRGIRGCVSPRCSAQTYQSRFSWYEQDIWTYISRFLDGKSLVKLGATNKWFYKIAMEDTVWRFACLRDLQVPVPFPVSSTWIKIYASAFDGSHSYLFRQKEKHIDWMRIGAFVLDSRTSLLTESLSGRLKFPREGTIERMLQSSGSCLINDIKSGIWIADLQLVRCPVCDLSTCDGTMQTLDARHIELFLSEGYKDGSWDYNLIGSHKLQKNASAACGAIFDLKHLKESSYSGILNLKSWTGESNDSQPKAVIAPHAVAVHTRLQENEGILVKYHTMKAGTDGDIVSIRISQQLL

MBP-RMF2 = target: T3, MBP-RMF2 (Arabidopsis thaliana, UniProt Q9FGB8 1-355)
T3 construct: RMF2, F-box protein, Arabidopsis thaliana, AGI AT5G36000; CDS cloned into pMAL-c5X; also called AT5G36000; source: E. coli Rosetta (DE3) or BL21 (DE3) pLysS, purified (Amylose Resin); not shown: MBP, N-terminal, kept
T3 sequence (looked up): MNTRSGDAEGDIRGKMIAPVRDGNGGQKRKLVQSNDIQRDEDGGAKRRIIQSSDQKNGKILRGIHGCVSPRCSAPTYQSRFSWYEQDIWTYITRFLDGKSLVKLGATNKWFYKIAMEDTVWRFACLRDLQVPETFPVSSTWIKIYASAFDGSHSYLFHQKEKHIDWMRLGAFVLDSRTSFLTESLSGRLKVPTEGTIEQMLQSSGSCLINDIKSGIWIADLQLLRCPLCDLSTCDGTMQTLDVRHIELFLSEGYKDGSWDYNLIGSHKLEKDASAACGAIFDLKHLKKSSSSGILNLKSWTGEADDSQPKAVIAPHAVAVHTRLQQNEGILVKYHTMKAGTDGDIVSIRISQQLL

MBP-RMF1 = target: T4, MBP-RMF1 (Arabidopsis thaliana, UniProt Q9M365 1-359)
T4 construct: RMF1, F-box protein, Arabidopsis thaliana, AGI AT3G61730; CDS cloned into pMAL-c5X; also called AT3G61730; source: E. coli Rosetta (DE3) or BL21 (DE3) pLysS, purified (Amylose Resin); not shown: MBP, N-terminal, kept
T4 sequence (looked up): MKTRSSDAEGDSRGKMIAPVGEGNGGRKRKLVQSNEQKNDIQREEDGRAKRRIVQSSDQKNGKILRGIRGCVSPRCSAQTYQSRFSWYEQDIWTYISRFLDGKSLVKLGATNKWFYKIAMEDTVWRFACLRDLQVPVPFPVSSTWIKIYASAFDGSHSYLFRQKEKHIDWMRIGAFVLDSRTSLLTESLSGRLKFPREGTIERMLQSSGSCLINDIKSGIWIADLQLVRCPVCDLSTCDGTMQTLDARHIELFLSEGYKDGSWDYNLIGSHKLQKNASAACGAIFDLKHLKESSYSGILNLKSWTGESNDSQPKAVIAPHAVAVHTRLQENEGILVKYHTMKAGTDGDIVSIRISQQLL

B1: GST-ASK1 (natural protein, Arabidopsis thaliana, UniProt Q39255 1-160, looked up)
chain: MSAKKIVLKSSDGESFEVEEAVALESQTIAHMVEDDCVDNGVPLPNVTSKILAKVIEYCKRHVEAAASKAEAVEGAATSDDDLKAWDADFMKIDQATLFELILAANYLNIKNLLDLTCQTVADMIKGKTPEEIRTTFNIKNDFTPEEEEEVRRENQWAFE
notes: ASK1 (Arabidopsis Skp1-like1), Arabidopsis thaliana, AGI AT1G75950; CDS cloned into pGEX 4T-1; also called AT1G75950; not shown: GST, N-terminal, kept
binding result (SUMO-HIS-RMF2): binds | binding result (SUMO-HIS-RMF1): binds

B2: SUMO-HIS-DMC1 (natural protein, Arabidopsis thaliana, UniProt Q39009 1-344, looked up)
chain: MMASLKAEETSQMQLVEREENDEDEDLFEMIDKLIAQGINAGDVKKLQEAGIHTCNGLMMHTKKNLTGIKGLSEAKVDKICEAAEKIVNFGYMTGSDALIKRKSVVKITTGCQALDDLLGGGIETSAITEAFGEFRSGKTQLAHTLCVTTQLPTNMKGGNGKVAYIDTEGTFRPDRIVPIAERFGMDPGAVLDNIIYARAYTYEHQYNLLLGLAAKMSEEPFRILIVDSIIALFRVDFTGRGELADRQQKLAQMLSRLIKIAEEFNVAVYMTNQVIADPGGGMFISDPKKPAGGHVLAHAATIRLLFRKGKGDTRVCKVYDAPNLAEAEASFQITQGGIADAKD
notes: DMC1, meiosis-specific RecA-family recombinase, Arabidopsis thaliana, AGI At3G22880; CDS cloned into pSUMO (on pET28a); also called At3G22880; not shown: SUMO, N-terminal, kept; HIS, N-terminal, kept
binding result (MBP-RMF2): binds | binding result (MBP-RMF1): binds

B3: SUMO-HIS-DMC1-6KR (natural protein, Arabidopsis thaliana, UniProt Q39009 1-344, looked up)
chain: MMASLKAEETSQMQLVEREENDEDEDLFEMIDKLIAQGINAGDVRRLQEAGIHTCNGLMMHTKKNLTGIRGLSEAKVDKICEAAEKIVNFGYMTGSDALIRRKSVVKITTGCQALDDLLGGGIETSAITEAFGEFRSGKTQLAHTLCVTTQLPTNMKGGNGRVAYIDTEGTFRPDRIVPIAERFGMDPGAVLDNIIYARAYTYEHQYNLLLGLAAKMSEEPFRILIVDSIIALFRVDFTGRGELADRQQKLAQMLSRLIKIAEEFNVAVYMTNQVIADPGGGMFISDPKRPAGGHVLAHAATIRLLFRKGKGDTRVCKVYDAPNLAEAEASFQITQGGIADAKD
notes: DMC1, Arabidopsis thaliana, AGI At3G22880; CDS with all six lysines K45, K46, K70, K101, K162 and K290 changed to arginine, cloned into pSUMO (on pET28a); not shown: SUMO, N-terminal, kept; HIS, N-terminal, kept
binding result (MBP-RMF2): binds | binding result (MBP-RMF1): binds
